B1: human T-plastin, full length, wild type [human] / F-actin (filaments of α-actin) [not stated] (parent complex)
chain 1: MDEMATTQISKDELDELKEAFAKVDLNSNGFICDYELHELFKEANMPLPGYKVREIIQKLMLDGDRNKDGKISFDEFVYIFQEVKSSDIAKTFRKAINRKEGICALGGTSELSSEGTQHSYSEEEKYAFVNWINKALENDPDCRHVIPMNPNTDDLFKAVGDGIVLCKMINLSVPDTIDERAINKKKLTPFIIQENLNLALNSASAIGCHVVNIGAEDLRAGKPHLVLGLLWQIIKIGLFADIELSRNEALAALLRDGETLEELMKLSPEELLLRWANFHLENSGWQKINNFSADIKDSKAYFHLLNQIAPKGQKEGEPRIDINMSGFNETDDLKRAESMLQQADKLGCRQFVTPADVVSGNPKLNLAFVANLFNKYPALTKPENQDIDWTLLEGETREERTFRNWMNSLGVNPHVNHLYADLQDALVILQLYERIKVPVDWSKVNKPPYPKLGANMKKLENCNYAVELGKHPAKFSLVGIGGQDLNDGNQTLTLALVWQLMRRYTLNVLEDLGDGQKANDDIIVNWVNRTLSEAGKSTSIQSFKDKTISSSLAVVDLIDAIQPGCINYDLVKSGNLTEDDKHNNAKYAVSMARRIGARVYALPEDLVEVKPKMVMTVFACLMGRGMKRV
chain 2: not shown

Variants of: B1
Assay: sequential low-speed/high-speed F-actin cosedimentation assay; 5 μM actin, 2 μM plastin; read off a plot

Row | response | Variant
1 | ~0.77 proportion of T-plastin in low-speed pellet | chain 1 R594A
2 | ~0.37 proportion of T-plastin in low-speed pellet | chain 1 W390A

From publication PMC9478642 (2022)
